This note sets out measurements from US20230312755A1 (ANGITIA, published 2023).

The target in assay [1] is T1, His-tagged human Sclerostin (NCBI reference No. NP_079513.1) (human, UniProt Q9BQB4 24-213).
T1 construct: also called mouse His-tagged human Sclerostin; not shown: His tag
T1 sequence: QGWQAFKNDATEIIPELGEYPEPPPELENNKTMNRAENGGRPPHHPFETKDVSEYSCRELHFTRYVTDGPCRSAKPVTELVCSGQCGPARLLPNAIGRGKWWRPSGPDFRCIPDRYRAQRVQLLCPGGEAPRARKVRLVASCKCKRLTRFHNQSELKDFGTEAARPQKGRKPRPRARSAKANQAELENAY
Put plainly: ELISA, plate coated with His-tagged human Sclerostin. On the procedure:
The ability of antibodies to specifically bind Sclerostin was determined by an ELISA capture assay. Plates were coated, in a 96-well half-area, with 100 μl/well of mouse His-tagged human Sclerostin (NCBI reference No. is NP_079513.1) [[…]], in coating buffer (PBS, pH 7.4), and incubated at RT for one hour, or 4° C. overnight. The plates were washed once with 100 μl/well of washing solution (PBS containing 0.2% Tween20, BIO-RAD). Plates were then incubated in blocking solution (PBS containing 1% BSA, 1% goat serum and 0.5% Tween20; 100 μl/well) for one hour at room temperature (RT). Anti-Sclerostin antibodies at various concentrations (1000, 333.3, 111.1, 37.0, 12.3, 4.1, 1.4, 0.5, 0.15, 0.05 ng/ml), a positive control antibody Romosozumab or non-Sclerostin related IgG (human or rat IgG, negative control), were then added to each well in 20 μl/well of blocking solution, and plates were incubated at RT for one hour. NeutrAvidin HRP (Pierce, Catalog #31001) diluted in blocking solution (1:50,000 dilution) was added at to each well ([…]), and the plates were incubated at RT for one hour prior to three washes with […] of washing solution. SuperSignal ELISA Femto (ThermoFisher Scientific, Catalog #37074) working solution was added to the plates ([…]), and the signal was read using a luminometer at 425 nm.
In general terms: An ELISA detects its analyte on a solid surface through an enzyme-linked reagent.

Assay [2] concerns the target T2, human Sclerostin (human, UniProt Q9BQB4 24-213).
T2 sequence: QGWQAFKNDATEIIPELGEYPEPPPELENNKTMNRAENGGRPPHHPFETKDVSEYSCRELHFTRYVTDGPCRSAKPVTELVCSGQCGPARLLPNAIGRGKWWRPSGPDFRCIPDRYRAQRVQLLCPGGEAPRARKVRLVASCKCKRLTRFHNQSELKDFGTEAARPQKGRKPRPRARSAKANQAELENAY
Put plainly: cell-based or functional assay.

Assay [3] deals with T3, cynomolgus monkey Sclerostin (cynomolgus monkey, UniProt Q9BG78 24-213 (Chlorocebus aethiops entry)).
T3 chain: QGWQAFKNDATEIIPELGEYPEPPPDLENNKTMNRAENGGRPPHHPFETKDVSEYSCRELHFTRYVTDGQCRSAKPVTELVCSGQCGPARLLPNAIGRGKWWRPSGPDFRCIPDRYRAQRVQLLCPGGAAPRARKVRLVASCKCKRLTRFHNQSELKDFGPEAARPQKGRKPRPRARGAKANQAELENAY
Put plainly: BLI (Gator), antibody on anti-hFc biosensor, Sclerostin as analyte, 1:1 global fit. Here is the method: (§1) The binding affinity of humanized anti-Sclerostin antibodies to human and cynomolgus monkey Sclerostin were determined with bio-layer interferometry using a Gator instrument (Probe Life). Antibodies were immobilized on an anti-hFc biosensor, using a […]. Serial dilutions of human Sclerostin and cynomolgus monkey Sclerostin from 4 μg/ml by two folds in kinetics buffer (PBS, pH 7.4, 0.05% Tween-20, 0.2% BSA, 10 μM biotin) were used as the analytes. Affinity (KD) and kinetic parameters (Kₒₙ and Koff) were calculated from a global fit (1:1) of the data using the Gator software.

Assay [4] deals with T2, human Sclerostin. Nature of the assay: cell-based or functional assay. This is another data set of the same source.
For assay [5], the target named is T4, human DKK1 (human, UniProt O94907 32-266).
T4 sequence (looked up): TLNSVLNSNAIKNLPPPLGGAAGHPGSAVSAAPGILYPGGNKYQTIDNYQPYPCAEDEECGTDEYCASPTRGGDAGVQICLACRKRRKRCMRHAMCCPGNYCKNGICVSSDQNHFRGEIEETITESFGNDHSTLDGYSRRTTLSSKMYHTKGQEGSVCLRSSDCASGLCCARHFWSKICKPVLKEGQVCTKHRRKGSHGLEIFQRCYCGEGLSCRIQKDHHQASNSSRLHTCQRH
Nature of the assay: cell-based or functional assay.

For assay [6], the target named is T2, human Sclerostin. Nature of the assay: BLI (Gator), antibody on anti-hFc biosensor, antigen as analyte, 1:1 global fit. Here is the method:
(§2) Binding kinetics and affinities of anti-Sclerostin×anti-DKK1 and anti-Sclerostin×anti-RANKL bispecific antibodies were measured with Gator (Probe Life) bio-layer interferometry (BLI). Antibodies were immobilized on an anti-hFc biosensor, using a 5 μg/ml solution. Serial dilutions of sclerostin (from 1 μg/ml), DKK1 (from 2 μg/ml), or RANKL (from 4 μg/ml) by two folds in kinetics buffer (PBS, pH 7.4, 0.05% Tween-20, 0.2% BSA) were used as the analytes. Affinity (KD) and kinetic parameters (Kₒₙ and Koff) were calculated from a global fit (1:1) of the data using the Gator software.

Assay [7] deals with T4, human DKK1. Described as above. On the procedure:
as §2

The target in assay [8] is T2, human Sclerostin. Put plainly: BLI (Gator), antibody on anti-hFc biosensor, Sclerostin as analyte, 1:1 global fit. On the procedure:
as §1

B1: 65B12C9 (antibody, V domains shown)
VH: QVQLQQPGAELVKPGASVKLSCKASGYTFTSYWMHWVKQRPGQGLEWIGMIHPNSGSSNYNEKFKSKATLTVDKSSSTAYMQLSSLTSEDSAVYYCANDYDDEGFAYWGQGTLVTVSA
VL: SIVMTQTPKFLLVSAGDRVTITCKASQSVSNDVAWYQQKPGQSPKLLIYYASNRCTGVPDRFTGSGYGTDFTFTISTVQAEDLAVYFCQQDYSSPWTFGGGTKLEIK
notes: Murine monoclonal antibody from a hybridoma
As a reminder, the EC50 is the concentration at which the effect is half-maximal. B1 had an EC50 in assay [1] of 0.04 nM. For the same molecule, the “EC50, Sclerostin-neutralisation activity in HEK293/TCF/LEF/Wnt1 cells (luciferase reporter)” value with human Sclerostin [2] came to 152 nM.

B2: Romosozumab (antibody, V domains shown)
VH: EVQLVQSGAEVKKPGASVKVSCKASGYTFTDYNMHWVRQAPGQGLEWMGEINPNSGGAGYNQKFKGRVTMTTDTSTSTAYMELRSLRSDDTAVYYCARLGYDDIYDDWYFDVWGQGTTVTVSS
VL: DIQMTQSPSSLSASVGDRVTITCRASQDISNYLNWYQQKPGKAPKLLIYYTSRLLSGVPSRFSGSGSGTDFTLTISSLQPEDFATYYCQQGDTLPYTFGGGTKVEIK
In general, Kd refers to the equilibrium constant for the complex coming apart. As usually defined, the koff is the first-order rate constant of dissociation. The kon is a measure of how fast the partners come together. In assay [3], B2 came in with a Kd of 0.35 nM, a koff of 0.000239 s⁻¹ and a kon of 755000 M⁻¹ s⁻¹.

B3: BAP0039 (bispecific antibody, human IgG4 S228P, kappa)
heavy: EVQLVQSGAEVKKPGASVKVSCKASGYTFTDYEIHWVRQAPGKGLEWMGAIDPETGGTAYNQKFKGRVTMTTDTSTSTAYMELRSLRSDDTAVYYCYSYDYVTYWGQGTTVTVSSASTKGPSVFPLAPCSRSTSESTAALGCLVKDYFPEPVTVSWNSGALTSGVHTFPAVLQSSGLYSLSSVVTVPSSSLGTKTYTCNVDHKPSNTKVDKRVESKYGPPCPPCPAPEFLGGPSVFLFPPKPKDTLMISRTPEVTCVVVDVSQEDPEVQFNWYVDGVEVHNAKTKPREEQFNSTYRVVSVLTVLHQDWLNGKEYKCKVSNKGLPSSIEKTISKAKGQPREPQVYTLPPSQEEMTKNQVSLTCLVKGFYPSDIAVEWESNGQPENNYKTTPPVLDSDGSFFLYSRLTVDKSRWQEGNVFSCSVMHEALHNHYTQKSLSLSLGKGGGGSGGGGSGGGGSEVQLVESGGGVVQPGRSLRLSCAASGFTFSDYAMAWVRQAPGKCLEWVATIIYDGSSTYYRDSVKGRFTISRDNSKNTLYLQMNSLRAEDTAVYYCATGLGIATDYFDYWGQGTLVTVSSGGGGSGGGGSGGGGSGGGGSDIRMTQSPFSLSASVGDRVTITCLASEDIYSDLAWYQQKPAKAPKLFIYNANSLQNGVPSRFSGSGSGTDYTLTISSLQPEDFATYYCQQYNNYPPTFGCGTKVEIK
light: DVVMTQSPLSLSVSPGERASLSCKSSQSLLYSDGRTYLNWYLQKPGQSPQRLIYLVSKLDSGVPDRFSGSGSGTDFTLKISRVQSEDVGVYYCWQGTHLPHTFGGGTKVEIKRTVAAPSVFIFPPSDEQLKSGTASVVCLLNNFYPREAKVQWKVDNALQSGNSQESVTEQDSKDSTYSLSSTLTLSKADYEKHKVYACEVTHQGLSSPVTKSFNRGEC
notes: Anti-DKK1 scFv (VH-VL) fused to the C-terminus of the heavy chains of the anti-Sclerostin full length antibody (hAb-1)
As for B3, the “EC50, Sclerostin neutralization activity in HEK293/TCF/LEF/Wnt1 reporter gene assay” value in the assay with human Sclerostin [4] amounted to 26.7 nM. The “EC50, DKK1 neutralization activity in HEK293/TCF/LEF/Wnt1 reporter gene assay” value with human DKK1 [5] turned out to be 20.9 nM. In the assay with human Sclerostin [6], this molecule had a Kd of 0.052 nM, a koff of 9.74e-05 s⁻¹ and a kon of 1.88e+06 M⁻¹ s⁻¹. In the assay with human DKK1 [7], this molecule showed a Kd of 0.14 nM, a koff of 4.32e-05 s⁻¹ and a kon of 309000 M⁻¹ s⁻¹.

B4: hAb-1 (antibody, V domains shown)
VH: EVQLVQSGAEVKKPGASVKVSCKASGYTFTDYEIHWVRQAPGKGLEWMGAIDPETGGTAYNQKFKGRVTMTTDTSTSTAYMELRSLRSDDTAVYYCYSYDYVTYWGQGTTVTVSS
VL: DVVMTQSPLSLSVSPGERASLSCKSSQSLLYSDGRTYLNWYLQKPGQSPQRLIYLVSKLDSGVPDRFSGSGSGTDFTLKISRVQSEDVGVYYCWQGTHLPHTFGGGTKVEIK
notes: Humanized 93B1B7; also called humanized anti-Sclerostin antibody hAb-1
With B4, the “EC50, Sclerostin-neutralisation activity in HEK293/TCF/LEF/Wnt1 cells (luciferase reporter)” value with human Sclerostin [2] was 13.9 nM. For the same molecule, in the assay with human Sclerostin [8], the Kd is 0.41 nM, the koff turned out to be 0.0003 s⁻¹ and the kon is 730000 M⁻¹ s⁻¹. In assay [3], this molecule had a Kd of 0.18 nM, a koff of 0.000229 s⁻¹ and a kon of 1.28e+06 M⁻¹ s⁻¹.

B5: hAb-3 (antibody, V domains shown)
VH: EVQLVQSGAEVKKPGASVKVSCKASGYTFTDYEIHWVRQAPGKGLEWMGAIDPETGGTAYNQKFKGRVTMTTDTSTSTAYMELRSLRSDDTAVYYCYSYDYVTYWGQGTTVTVSS
VL: DIQMTQSPSSLSASVGDRVTITCRSSQSLLYSDSRTYLNWLQQKPGKSPKRLIYLVSKLDSGVPDRFSGSGSGTDFTLTISSLQPEDFATYYCWQGTHLPHTFGGGTKVEIK
On to B5, for which the “EC50, Sclerostin-neutralisation activity in HEK293/TCF/LEF/Wnt1 cells (luciferase reporter)” value with human Sclerostin [2] was 15.1 nM.

B6: 91F6D10 (antibody, V domains shown)
VH: QVQLQQSGAELVRPGASVTLSCKASGYTFTDYEMHWVKQTPVHGLEWIGAIDPETGGTAYNQKFKAKAILTADRSSSTAYMELRSLTSEDSAVYYCFSYDYVSYWGQGTLVTVSA
VL: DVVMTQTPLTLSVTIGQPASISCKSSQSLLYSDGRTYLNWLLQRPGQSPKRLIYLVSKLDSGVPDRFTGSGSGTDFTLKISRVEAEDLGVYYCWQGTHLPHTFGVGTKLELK
notes: as for B1
On to B6, for which, in assay [1], the EC50 came out at 0.06 nM. Further, the “EC50, Sclerostin-neutralisation activity in HEK293/TCF/LEF/Wnt1 cells (luciferase reporter)” value with human Sclerostin [2] stood at 60.6 nM.

B7: 51E8D4 (antibody, V domains shown)
VH: QVQLQQSGAELVRPGASVTLSCKASGYTFTDFEIHWMKQTPVPGLEWIGAIDPETGGTAYNQKFKGKALLTADKSSSTAYMDLRSLTSEDSAVYFCFSYDYVSYWGQGTLVTVSA
VL: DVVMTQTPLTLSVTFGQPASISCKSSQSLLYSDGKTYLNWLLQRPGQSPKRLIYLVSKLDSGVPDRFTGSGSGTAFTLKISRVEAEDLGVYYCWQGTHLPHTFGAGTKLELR
notes: as for B1
In assay [1], B7 displayed an EC50 of 0.07 nM. Besides, the “EC50, Sclerostin-neutralisation activity in HEK293/TCF/LEF/Wnt1 cells (luciferase reporter)” value with human Sclerostin [2] was 63.4 nM.

B8: 71G6G8 (antibody, V domains shown)
VH: QAQLQQSGAELVRPGASVTLSCKASGYTFTDYEIHWVKQTPVHGLEWIGAIDPETGGTAYNQKFKGKAILTADRSSSTAYLELRSLTSEDSAVYYCFSYDYVTYWGQGTLVTVTA
VL: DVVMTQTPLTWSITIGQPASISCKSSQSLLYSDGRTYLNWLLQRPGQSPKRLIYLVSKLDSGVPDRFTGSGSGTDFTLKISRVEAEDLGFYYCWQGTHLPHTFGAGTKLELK
notes: Murine anti-Sclerostin monoclonal antibody
As for B8, a half-maximal effect in assay [1] (EC50) was put at 0.04 nM. The “EC50, Sclerostin-neutralisation activity in HEK293/TCF/LEF/Wnt1 cells (luciferase reporter)” value in the assay with human Sclerostin [2] is 67.4 nM.

B9: 84F2D5 (antibody, V domains shown)
VH: QVQLQQSGAELVRPGASVTLSCKASGYTFTDFEIHWLKQTPVPGLEWIGAIDPETGGTAYNQKFKGKALLTADKSSSTAYMELRSLTSEDSAVYYCFSYDYVSYWGQGTLVTVSA
VL: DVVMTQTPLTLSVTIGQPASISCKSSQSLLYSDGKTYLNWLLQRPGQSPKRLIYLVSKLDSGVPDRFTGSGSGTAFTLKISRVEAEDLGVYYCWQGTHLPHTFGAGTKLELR
notes: as for B1
With B9, the 50% effective concentration (EC50) in assay [1] amounted to 0.02 nM. Further, the “EC50, Sclerostin-neutralisation activity in HEK293/TCF/LEF/Wnt1 cells (luciferase reporter)” value with human Sclerostin [2] worked out at 59.4 nM.

B10: 81B2B6 (antibody, V domains shown)
VH: QVQLQQSGAELVRPGASVTLSCKASGYTFTDYEMHWVKQTPVHGLEWIGAIDPETGGTAYNQKFKAKAILTADRSSSTAYMELRSLTSEDSAVYYCFSYDYVSYWGQGTLVTVSA
VL: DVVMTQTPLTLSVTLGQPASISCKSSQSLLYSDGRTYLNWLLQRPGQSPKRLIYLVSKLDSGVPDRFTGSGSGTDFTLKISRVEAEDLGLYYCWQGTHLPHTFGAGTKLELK
notes: as for B1
Consider B10, for which a half-maximal response in assay [1] (EC50) required 0.01 nM. The “EC50, Sclerostin-neutralisation activity in HEK293/TCF/LEF/Wnt1 cells (luciferase reporter)” value in the assay with human Sclerostin [2] worked out at 59.6 nM.

B11: 97C11D7 (antibody, V domains shown)
VH: QVQLQQSGAELVRPGASVTLSCKASGYTFTDYEMHWVKQTPVHGLEWIGAIDPETGGSANNQKFKAKAILTADRSSSTAYMELRSLTSEDSAVYYCFSYDYVSYWGQGTLVTVSA
VL: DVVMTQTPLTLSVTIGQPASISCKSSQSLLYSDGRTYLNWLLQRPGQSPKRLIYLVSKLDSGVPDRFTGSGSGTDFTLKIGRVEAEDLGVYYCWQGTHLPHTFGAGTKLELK
notes: as for B1
B11 gave an EC50 in assay [1] of 0.04 nM. Also, the “EC50, Sclerostin-neutralisation activity in HEK293/TCF/LEF/Wnt1 cells (luciferase reporter)” value in the assay with human Sclerostin [2] came to 55.4 nM.

B12: 56E5C10 (antibody, V domains shown)
VH: QVQLQQSGAELVRPGASVTLSCKASGYTFTDFEMHWVKQTPVHGLEWIGAIDPETGGTAYNQKFTAKAILTADRSSSTAYMELRSLTSEDSAVYYCFSYDYVSYWGQGTLVTVSA
VL: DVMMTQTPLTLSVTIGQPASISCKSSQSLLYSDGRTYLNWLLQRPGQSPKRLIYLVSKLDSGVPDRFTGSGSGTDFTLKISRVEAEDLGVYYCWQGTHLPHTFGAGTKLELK
notes: as for B1
Take B12: in assay [1], the midpoint of the response, the EC50, lay at 0.09 nM. Further, the “EC50, Sclerostin-neutralisation activity in HEK293/TCF/LEF/Wnt1 cells (luciferase reporter)” value with human Sclerostin [2] turned out to be 64.2 nM.

B13: 94B12D3 (antibody, V domains shown)
VH: QVQLQQSGAELVRPGASVTLSCKASGYTFTDYEIHWVKQTPVHGLEWIGAIDPETGGTAYNQKFKAKAILTADRSSSTAYMELRSLTSEDSAVYYSFSYDYVSYWGQGTLVTVSA
VL: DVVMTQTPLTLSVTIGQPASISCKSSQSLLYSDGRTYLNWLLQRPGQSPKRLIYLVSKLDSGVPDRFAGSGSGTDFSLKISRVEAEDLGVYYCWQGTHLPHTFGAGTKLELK
notes: as for B1
In the case of B13, in assay [1], the midpoint of the response, the EC50, lay at 0.04 nM. Besides, the “EC50, Sclerostin-neutralisation activity in HEK293/TCF/LEF/Wnt1 cells (luciferase reporter)” value with human Sclerostin [2] is 62.8 nM.
